Source: US20240317847A1 (Bayer, published 2024)
“And” between values parts separate entries of the source, which are not always exact repeats. Equal entries are not always repeated.

Key:
[1] = molecular target: T1, murine IL-11 (mouse, UniProt P47873 22-199); assay: cell-based or functional assay
T1 sequence: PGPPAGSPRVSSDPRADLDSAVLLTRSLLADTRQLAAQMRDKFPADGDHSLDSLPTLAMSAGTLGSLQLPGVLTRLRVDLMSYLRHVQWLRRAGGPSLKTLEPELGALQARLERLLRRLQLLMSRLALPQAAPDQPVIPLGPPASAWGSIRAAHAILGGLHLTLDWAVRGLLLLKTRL

[2] = molecular target: T2, human IL-11 (human, UniProt P20809 22-199); assay: cell-based or functional assay
T2 sequence: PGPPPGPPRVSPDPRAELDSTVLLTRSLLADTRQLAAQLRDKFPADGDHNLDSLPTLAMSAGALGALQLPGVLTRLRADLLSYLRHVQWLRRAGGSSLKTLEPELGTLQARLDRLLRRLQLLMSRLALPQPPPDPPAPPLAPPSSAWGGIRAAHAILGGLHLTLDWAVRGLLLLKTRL

[3] = molecular target: T1, murine IL-11; assay: cell-based or functional assay; remark: listed apart in the source
[4] = molecular target: T2, human IL-11; assay: cell-based or functional assay; remark: listed apart in the source
[5] = molecular target: T1, murine IL-11; assay: SPR, IgG captured via anti-human Fc, IL-11 as analyte
Protocol: (§1) Antibody binding affinity to hIL-11 (Invigate, Germany, e.g., lot #C121021-19) and mIL-11 (Invigate, Germany, e.g., lot #C210819-09) was detected using Biacore 8K. Each antibody was captured on an anti-human IgG Fc antibody immobilized CM5 sensor chip (GE). hIL-11 and mIL-11 at different concentrations (0, 5, 15.82 and 50 nM) in 1×HBS-EP+ (pH 7.4) (GE healthcare) were injected over the sensor chip at a flow rate of 30 μL/min for an association phase of 120 s, followed by 200 s dissociation phase. The chip was then regenerated by 10 mM Glycine, pH 1.5 after each binding cycle.
(§2) The sensorgrams of blank surface and buffer channel were subtracted from the test sensorgrams. The experimental data was fitted by 1:1 model using Langmiur analysis. Molecular weight of 19.3 kDa was used to calculate the molar concentration of human and mouse IL-11.
(§3) 16 AB were produced as described in Example 21 and binding of purified AB to human and mouse IL-11 was analyzed using SPR as described in Example 21.

[6] = molecular target: T2, human IL-11; assay: as above
Protocol: as §1, §2, §3

[7] = molecular target: T3, murine IL-11 (mouse, UniProt P47873 22-199); assay: cell-based or functional assay; remark: listed apart in the source
T3 sequence: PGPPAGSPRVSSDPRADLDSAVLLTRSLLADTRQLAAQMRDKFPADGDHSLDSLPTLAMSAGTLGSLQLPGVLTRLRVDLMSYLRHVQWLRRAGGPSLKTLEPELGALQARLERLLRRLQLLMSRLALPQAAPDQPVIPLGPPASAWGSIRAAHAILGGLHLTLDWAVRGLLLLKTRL

[8] = molecular target: T4, human IL-11 (human, UniProt P20809 22-199); assay: cell-based or functional assay; remark: listed apart in the source
T4 sequence: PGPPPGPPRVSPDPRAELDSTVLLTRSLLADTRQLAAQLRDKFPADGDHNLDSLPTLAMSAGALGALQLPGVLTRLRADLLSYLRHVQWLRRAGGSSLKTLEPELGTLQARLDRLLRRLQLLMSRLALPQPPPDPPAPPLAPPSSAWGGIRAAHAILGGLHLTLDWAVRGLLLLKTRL

[9] = molecular target: T5, cynomolgus IL-11 (cynomolgus, UniProt P20808 22-199); assay: SPR, antibody captured, IL-11 as analyte
T5 construct: Invigate, lot #C290621-19; also called cIL11; cynoL-11
T5 sequence: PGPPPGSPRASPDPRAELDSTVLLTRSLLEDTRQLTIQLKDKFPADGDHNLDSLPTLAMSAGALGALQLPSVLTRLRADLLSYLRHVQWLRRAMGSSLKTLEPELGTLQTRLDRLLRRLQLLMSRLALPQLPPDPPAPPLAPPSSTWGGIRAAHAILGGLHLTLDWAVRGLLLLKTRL

[10] = molecular target: T3, murine IL-11; assay: SPR, antibody captured, IL-11 as analyte
[11] = molecular target: T4, human IL-11; assay: SPR, antibody captured, IL-11 as analyte
[12] = molecular target: T6, rat IL-11 (rat, UniProt Q99MF5 22-199); assay: SPR, antibody captured, IL-11 as analyte
T6 construct: Invigate, e.g. lot #C301019-19; also called rIL11
T6 sequence: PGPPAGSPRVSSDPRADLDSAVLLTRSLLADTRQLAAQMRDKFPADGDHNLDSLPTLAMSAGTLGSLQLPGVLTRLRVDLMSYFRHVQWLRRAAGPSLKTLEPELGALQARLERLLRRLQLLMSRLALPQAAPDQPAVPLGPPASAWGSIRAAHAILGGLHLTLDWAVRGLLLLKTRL

| Binder | IC50, RGA 1 [1] | IC50, RGA 2 [1] | IC50, RGA 1 [2] | IC50, RGA 2 [2] | IC50, RGA [3] | IC50, RGA [4] | Kd [5] | Kd [6] | RGA Efficacy (%) [7] | RGA Efficacy (%) [8] | RGA IC50 [8] | Kd [9] | Kd [10] | Kd [11] | Kd [12] | RGA IC50 [7] |
| --- | --- | --- | --- | --- | --- | --- | --- | --- | --- | --- | --- | --- | --- | --- | --- | --- |
| TPP-31312 (antibody, IgG4, V domains shown, also called WT antibody; chimeric antibody) VH: EVQLLESGGGLVQPGGSLRLSCAASGFTFSHYDMNWLRQAPGKGLEWVGVISYDGSNKFYADFVKGRFTISRDNSKNTLYLQMNSLRAEDTAVYYCARTPGSHFDYWGQGTLVTVSS VL: QSVLTQPPSASGTPGQRVTISCSGSSSNIGNNAVNWYQQLPGTAPKLLIYYDDLLPSGVPDRFSGSKSGTSASLAISGLRSEDEADYYCSAWDDSLNGVVFGGGTKLTVL | 31 nM and 75 nM | 20 nM | 163 nM and 171 nM | 80 nM | 9.8 nM | 8.9 nM | 9.3 nM | 5.3 nM |  |  |  |  |  |  |  |  |
| TPP-31325 (antibody, human IgG4 S228P, lambda, V domains shown, hIgG4-SPLE, Lambda; also called final germline; FB with a back-mutation VL-A90S) VH: QVQLVESGGGVVQPGRSLRLSCAASGFTFSHYDMHWVRQAPGKGLEWVAVISYEGSNKFYADSVKGRFTISRDNSKNTLYLQMNSLRAEDTAVYYCARTPGSHFDYWGQGTLVTVSS VL: QSVLTQPPSASGTPGQRVTISCSGSSSNIGSNYVNWYQQLPGTAPKLLIYYDDLRPSGVPDRFSGSKSGTSASLAISGLRSEDEADYYCSAWDDSLSGVVFGGGTKLTVLG |  |  |  |  | 0.6 nM | 1.2 nM | 0.35 nM | 0.59 nM |  |  |  |  |  |  |  |  |
| TPP-31328 (antibody, IgG4, V domains shown, hIgG4 SPLE, lambda; FB + 2, plus VH-F59Y & VL-D53N) VH: QVQLVESGGGVVQPGRSLRLSCAASGFTFSHYDMHWVRQAPGKGLEWVAVISYEGSNKYYADSVKGRFTISRDNSKNTLYLQMNSLRAEDTAVYYCARTPGSHFDYWGQGTLVTVSS VL: not shown |  |  |  |  | 2.1 nM | 7.9 nM | 1.8 nM | 1.8 nM |  |  |  |  |  |  |  |  |
| TPP-31327 (antibody, IgG4, V domains shown, hIgG4 SPLE, lambda; FB + 1, plus VL-D53N) VH: QVQLVESGGGVVQPGRSLRLSCAASGFTFSHYDMHWVRQAPGKGLEWVAVISYEGSNKFYADSVKGRFTISRDNSKNTLYLQMNSLRAEDTAVYYCARTPGSHFDYWGQGTLVTVSS VL: not shown |  |  |  |  | 2.1 nM | 3.1 nM | 0.85 nM | 1 nM |  |  |  |  |  |  |  |  |
| TPP-29391 (antibody, human IgG1, V domains shown) VH: EVQLLESGGGLVQPGGSLRLSCAASGFTFSSYGMHWVRQAPGKGLEWVAVISYDGSYKYYADSVKGRFTISRDNSKNTLYLQMNSLRAEDTAVYYCAAGVPDYWGQGTLVTVSS VL: QSVLTQPPSASGTPGQRVTISCSGSSSNIGSDYDVHWYQQLPGTAPKLLIYSNNERPSGVPDRFSGSKSGTSASLAISGLRSEDEADYYCAAWDSSLYGPVFGGGTKLTVL |  |  |  |  |  |  |  |  | 96.9% | 84% | 540 pM | 0.69 nM | 0.17 nM | 0.36 nM | 0.071 nM |  |
| TPP-29381 (antibody, human IgG1, V domains shown) VH: EVQLLESGGGLVQPGGSLRLSCAASGFTFSSYGMHWVRQAPGKGLEWVAVISYDGSYKYYADSVKGRFTISRDNSKNTLYLQMNSLRAEDTAVYYCAAGVPDYWGQGTLVTVSS VL: QSVLTQPPSASGTPGQRVTISCSGSSSNIGSDYDVHWYQQLPGTAPKLLIYSNNERPSGVPDRFSGSKSGTSASLAISGLRSEDEADYYCSAWDSSLSGPVFGGGTKLTVL |  |  |  |  |  |  |  |  | 94.8% | 75.3% | 480 pM | 0.43 nM | 0.57 nM | 0.62 nM | 0.3 nM | 450 pM |
| TPP-29389 (antibody, human IgG1, V domains shown) VH: EVQLLESGGGLVQPGGSLRLSCAASGFTFSSYGMHWVRQAPGKGLEWVAVISYDGSYKYYADSVKGRFTISRDNSKNTLYLQMNSLRAEDTAVYYCAAGVPDYWGQGTLVTVSS VL: QSVLTQPPSASGTPGQRVTISCSGSSSNIGSYYDVHWYQQLPGTAPKLLIYSNEERPSGVPDRFSGSKSGTSASLAISGLRSEDEADYYCAAWDPSLYGPVFGGGTKLTVL |  |  |  |  |  |  |  |  | 97.4% | 87.3% | 840 pM | 0.91 nM | 0.12 nM | 0.23 nM | 0.083 nM | 290 pM |
| TPP-29384 (antibody, human IgG1, V domains shown) VH: EVQLLESGGGLVQPGGSLRLSCAASGFTFSSYGMHWVRQAPGKGLEWVAVISYDGSYKYYADSVKGRFTISRDNSKNTLYLQMNSLRAEDTAVYYCAAGVPDYWGQGTLVTVSS VL: QSVLTQPPSASGTPGQRVTISCSGSSSNIGSGYDVHWYQQLPGTAPKLLIYSNEERPSGVPDRFSGSKSGTSASLAISGLRSEDEADYYCAAWDPSLSGPVFGGGTKLTVL |  |  |  |  |  |  |  |  | 97.2% | 81.9% | 2800 pM | 0.86 nM | 0.3 nM | 0.98 nM | 0.18 nM | 330 pM |
| TPP-29382 (antibody, human IgG1, V domains shown) VH: EVQLLESGGGLVQPGGSLRLSCAASGFTFSSYGMHWVRQAPGKGLEWVAVISYDGSYKYYADSVKGRFTISRDNSKNTLYLQMNSLRAEDTAVYYCAAGVPDYWGQGTLVTVSS VL: QSVLTQPPSASGTPGQRVTISCSGSSSNIGSDLDVHWYQQLPGTAPKLLIYSNNERPSGVPDRFSGSKSGTSASLAISGLRSEDEADYYCAAWDFSLYGPVFGGGTKLTVL |  |  |  |  |  |  |  |  | 87.5% | 81.4% | 640 pM | 0.46 nM | 0.56 nM | 0.44 nM | 0.2 nM | 260 pM |
| TPP-29383 (antibody, human IgG1, V domains shown) VH: EVQLLESGGGLVQPGGSLRLSCAASGFTFSSYGMHWVRQAPGKGLEWVAVISYDGSYKYYADSVKGRFTISRDNSKNTLYLQMNSLRAEDTAVYYCAAGVPDYWGQGTLVTVSS VL: QSVLTQPPSASGTPGQRVTISCSGSSSNIGSDLDVHWYQQLPGTAPKLLIYSNEERPSGVPDRFSGSKSGTSASLAISGLRSEDEADYYCAAWDPSLYGPVFGGGTKLTVL |  |  |  |  |  |  |  |  | 94.2% | 86% | 1600 pM | 1.3 nM | 0.62 nM | 1.1 nM | 0.31 nM | 570 pM |
